Source: paper PMC4021073, “Breast tumor specific mutation in GATA3 affects physiological mechanisms regulating transcription factor turnover”

Target: GATA3 DBD wild-type (UniProt P23771-2 261-371)
Assay: EMSA; 0.5-4 uM protein, 30 uM DNA; 28 mM Tris-HCl pH 7.5, 120 mM NaCl, 1 mM DTT, 0.8 mM 2-mercaptoethanol, 4% glycerol, 0.4 uM zinc sulfate; 10 min at 37 C; 10 ul
Conditions: protein: recombinant; (pET-15b hexahistidine fusion); label: none (ethidium bromide stain); blunt (20 bp; one strand printed)

Sequence of GATA3 DBD wild-type (P23771 260-370): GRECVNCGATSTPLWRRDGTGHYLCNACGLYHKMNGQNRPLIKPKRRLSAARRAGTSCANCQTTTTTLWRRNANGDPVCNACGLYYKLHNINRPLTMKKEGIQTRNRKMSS

B1: GATA+ 20 bp (dsDNA)
DNA 1: AATGTCCATCTGATAAGACG
DNA 2: CGTCTTATCAGATGGACATT
- binding result: binds
